Results on 3 molecules are retold here after paper PMC10579538 (The Journal of Biological Chemistry, 2023).

In experiment [1] the target is actin (UniProt P68135).
Experiment [2] deals with myosin-7a subfragment-1 (motor domain and the first IQ motif) (human). As to the kind of experiment: mass photometry.
The target in experiment [3] is full-length human myosin-7a heavy chain (isoform 1, long N-terminal isoform) (human, UniProt Q13402-1 1-2215). As to the kind of experiment: single-molecule two-color TIRF co-migration on actin.
full-length human myosin-7a heavy chain (isoform 1, long N-terminal isoform), sequence (Q13402 whole entry, canonical isoform): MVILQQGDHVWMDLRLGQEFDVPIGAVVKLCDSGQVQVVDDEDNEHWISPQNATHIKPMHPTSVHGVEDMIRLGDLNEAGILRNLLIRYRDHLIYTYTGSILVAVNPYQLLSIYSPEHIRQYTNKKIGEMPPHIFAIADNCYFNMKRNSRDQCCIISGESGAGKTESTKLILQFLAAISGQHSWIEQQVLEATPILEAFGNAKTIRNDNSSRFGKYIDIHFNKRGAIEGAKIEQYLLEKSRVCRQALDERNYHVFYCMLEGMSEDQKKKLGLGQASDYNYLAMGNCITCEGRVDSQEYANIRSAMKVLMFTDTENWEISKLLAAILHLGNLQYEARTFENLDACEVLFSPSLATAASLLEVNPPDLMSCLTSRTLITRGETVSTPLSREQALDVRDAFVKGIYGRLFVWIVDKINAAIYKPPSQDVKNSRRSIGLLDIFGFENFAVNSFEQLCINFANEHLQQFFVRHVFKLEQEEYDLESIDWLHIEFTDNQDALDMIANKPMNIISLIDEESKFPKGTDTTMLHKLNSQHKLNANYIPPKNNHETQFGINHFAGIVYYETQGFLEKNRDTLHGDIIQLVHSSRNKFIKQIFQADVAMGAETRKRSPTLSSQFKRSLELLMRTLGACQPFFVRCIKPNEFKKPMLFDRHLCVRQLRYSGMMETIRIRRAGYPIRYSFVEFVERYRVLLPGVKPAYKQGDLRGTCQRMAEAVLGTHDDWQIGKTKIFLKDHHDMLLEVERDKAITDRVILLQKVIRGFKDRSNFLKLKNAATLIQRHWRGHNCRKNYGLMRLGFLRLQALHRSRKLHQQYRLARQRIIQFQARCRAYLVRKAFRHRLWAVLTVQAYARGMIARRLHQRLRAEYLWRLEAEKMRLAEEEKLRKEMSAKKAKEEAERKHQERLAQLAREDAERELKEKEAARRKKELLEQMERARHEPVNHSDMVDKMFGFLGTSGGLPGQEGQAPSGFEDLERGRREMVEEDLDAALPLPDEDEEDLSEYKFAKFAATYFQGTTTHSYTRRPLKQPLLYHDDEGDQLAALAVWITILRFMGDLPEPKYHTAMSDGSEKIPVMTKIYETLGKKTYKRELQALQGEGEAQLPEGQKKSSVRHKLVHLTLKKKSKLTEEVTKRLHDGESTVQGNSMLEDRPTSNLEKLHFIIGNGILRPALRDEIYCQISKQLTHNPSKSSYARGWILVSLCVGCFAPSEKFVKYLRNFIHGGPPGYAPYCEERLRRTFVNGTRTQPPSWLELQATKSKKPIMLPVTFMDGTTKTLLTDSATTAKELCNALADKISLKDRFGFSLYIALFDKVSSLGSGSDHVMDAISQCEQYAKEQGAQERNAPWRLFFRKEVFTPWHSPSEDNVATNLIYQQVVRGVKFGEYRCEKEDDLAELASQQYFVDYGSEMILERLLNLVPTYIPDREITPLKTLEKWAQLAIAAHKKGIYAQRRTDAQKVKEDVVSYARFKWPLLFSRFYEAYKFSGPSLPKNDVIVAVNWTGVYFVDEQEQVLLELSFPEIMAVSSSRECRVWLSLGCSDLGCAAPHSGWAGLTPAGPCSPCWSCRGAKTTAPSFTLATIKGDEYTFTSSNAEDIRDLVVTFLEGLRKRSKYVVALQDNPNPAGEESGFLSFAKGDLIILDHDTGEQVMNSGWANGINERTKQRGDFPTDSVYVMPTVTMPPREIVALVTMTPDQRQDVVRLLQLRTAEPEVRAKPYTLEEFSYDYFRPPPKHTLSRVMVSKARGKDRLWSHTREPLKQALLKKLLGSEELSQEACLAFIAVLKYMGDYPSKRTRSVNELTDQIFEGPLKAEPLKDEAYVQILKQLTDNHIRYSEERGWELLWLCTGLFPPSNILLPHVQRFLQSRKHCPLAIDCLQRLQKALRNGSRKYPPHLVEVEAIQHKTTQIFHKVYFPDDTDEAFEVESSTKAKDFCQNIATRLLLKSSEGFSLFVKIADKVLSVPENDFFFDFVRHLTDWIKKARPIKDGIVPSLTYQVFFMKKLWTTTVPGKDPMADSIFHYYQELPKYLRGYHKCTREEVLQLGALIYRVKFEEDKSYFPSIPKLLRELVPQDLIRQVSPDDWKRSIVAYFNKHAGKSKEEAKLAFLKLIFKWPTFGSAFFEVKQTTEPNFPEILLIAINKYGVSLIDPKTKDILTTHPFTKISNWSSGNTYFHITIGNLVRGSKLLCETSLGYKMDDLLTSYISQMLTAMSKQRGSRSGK

In experiment [1], “myosin-7a subfragment-1 (motor domain and the first IQ motif) (domain or fragment)” registered a K ATPase of the actin-activated steady-state ATPase (NADH-coupled assay) of 11 µM.
By stoichiometry N is commonly meant a count of units in the complex or per binding partner. In the case of “regulatory light chain (from UniProt O14950 1-172) (natural protein)”, in experiment [2], the stoichiometry N is 1.

B1: mCherry-tagged MyRIP (myosin and Rab interacting protein) (natural protein, UniProt Q8NFW9-1 1-859, looked up)
chain: MGRKLDLSGLTDDETEHVLQVVQRDFNLRKKEEERLSELKQKLDEEGSKCSILSKHQQFVEHCCMRCCSPFTFLVNTKRQCGDCKFNVCKSCCSYQKHEKAWVCCVCQQARLLRAQSLEWFYNNVKSRFKRFGSAKVLKNLYRKHRLESGACFDILGGSLFESNLENEGSISGSDSTFYRQSEGHSVMDTLAVALRVAEEAIEEAISKAEAYGDSLDKQNEASYLRDHKEELTEELATTILQKIIRKQKSKSEQQVEEEPGWPHPQSCSTKVADEGTSASPGGYRAPAALWRSQSAFSITGEEALKTPPVEAPSRQPRDQGQHPRAESALPSWKSVDRLDETNLAPVLQSPDGNWVALKDGAPPPTRLLAKPKSGTFQALEVASSVASAYDEMGSDSEEDFDWSEALSKLCPRSRALPRNPQPQPTQAQSSDQGPIAASPSSALSPNPEAMCSDSETSSAGSSREVGHQARLSWLQRKAPRNPAAEKMRLHGELDVNFNPQLASRETSDSSEPEEAPHTTDRRARRWRRARLGSEEPSKEPSSPSAQLRDLDTHQVSDDLSETDISNEARDPQTLTDTTEEKRRNRLYELAMKMSEKETSSGEDQESEPKTESENQKESLSSEDNSQSVQEELKKKFSAVSLCNISTEVLKVINATEELIAGSTGPWESPQVPPDRQKGMFPRGTDQVRLDEQLTSLEENVYLAAGTVYGLETQLTELEDAARCIHSGTDETHLADLEDQVATAAAQVHHAELQISDIESRISALTIAGLNIAPCVRFTRRRDQKQRTQVQTIDTSRQQRRKLPAPPVKAEKIETSSVTTIKTFNHNFILQGSSTNRTKERKGTTKDLMEPALESAVMY
For the molecule B1, the binding result in experiment [3] is reported as “binds”.
